# Data from article PMC6677171, “Subunit interactions and arrangements in the fission yeast Mis16–Mis18–Mis19 complex” (Life Science Alliance, 2019).
# Target: Mis16 (S. pombe), full length, affinity tag removed (S. pombe), O94244
# Test: ITC; iTC200, 30°C; 50 mM Tris pH 7.5, 100 mM NaCl, 4% glycerol, 0.5 TCEP; 26 μM protein in the cell, 260 μM peptide injected
# Mis16 (S. pombe), full length, affinity tag removed (S. pombe), O94244, sequence (O94244 whole entry): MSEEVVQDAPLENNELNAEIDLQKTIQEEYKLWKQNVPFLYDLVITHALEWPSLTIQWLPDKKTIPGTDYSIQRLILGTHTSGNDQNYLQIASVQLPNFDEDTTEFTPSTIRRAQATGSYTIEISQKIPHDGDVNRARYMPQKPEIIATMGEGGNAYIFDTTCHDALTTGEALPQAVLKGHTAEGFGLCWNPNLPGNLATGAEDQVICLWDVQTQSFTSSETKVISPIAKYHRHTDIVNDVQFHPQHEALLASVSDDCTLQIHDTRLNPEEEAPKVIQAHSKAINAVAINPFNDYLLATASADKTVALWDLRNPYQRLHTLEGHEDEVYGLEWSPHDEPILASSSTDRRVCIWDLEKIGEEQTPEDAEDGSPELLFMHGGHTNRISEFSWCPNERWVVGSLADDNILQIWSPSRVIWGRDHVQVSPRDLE
binder,measurement,value
"LHNRAFLRRNVRAVKM (modifications not checked) [Mis19 C-terminal peptide (residues 97–112) with V101 mutated, O42995 97-112]",Kd,0.051 µM
